B1: PTPN9 (parent)
chain: LKGAFPARLKKVLIVGAPIWFRVP
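Note: lentivirally expressed fusions sorted by FACS into six bins by GFP to DsRed ratio, PSI derived from sequencing read proportions per bin multiplied by bin number.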

The variants in the series derive from B1. The experiment in a line: protein stability index of a GFP-peptide fusion (GPS, HEK-293T) (PSI 1-6); higher = more stable. Particulars: c terminus: a fixed tail appended.
In the case of LKGAFPARLKKVLIVGAPISFRVP [W20S], the protein stability index stood at 2.41.

Regarding LKGAFPARLKKVLIVGAPIHFRVP [W20H], the protein stability index turned out to be 4.59.

With LKGAFPARLKKVLIVGAPIFFRVP [W20F], the protein stability index is 2.45.

Consider LKGAFPARLKKVLIVGAPIKFRVP [W20K], for which the protein stability index was 2.56.

Consider LKGAFPARLQKVLIVGAPIWFRVP [K10Q], for which the protein stability index was 2.94.

With LKGAFPARLSKVLIVGAPIWFRVP [K10S], the protein stability index was 3.47.

With LKGAFPARLYKVLIVGAPIWFRVP [K10Y], the protein stability index worked out at 2.2.

With LKSAFPARLKKVLIVGAPIWFRVP [G3S], the protein stability index was found to be 3.35.

As to LKKAFPARLKKVLIVGAPIWFRVP [G3K], the protein stability index stood at 3.39.

Turning to LKDAFPARLKKVLIVGAPIWFRVP [G3D], the protein stability index came to 3.16.

Turning to LKAAFPARLKKVLIVGAPIWFRVP [G3A], the protein stability index is 2.89.

Turning to LKGAFPARLKKVLIVNAPIWFRVP [G16N], the protein stability index amounted to 2.29.

Consider LKGAFPARLKKVLIVRAPIWFRVP [G16R], for which the protein stability index worked out at 3.43.

As for LKGAFPARLKKVLIVIAPIWFRVP [G16I], the protein stability index was 1.57.

Regarding LKGAFPARLKKVLIVWAPIWFRVP [G16W], the protein stability index was found to be 1.74.

As for LKGAFPARLKKVLIVFAPIWFRVP [G16F], the protein stability index is 2.2.

As to LKGAFPARLKKVLIVPAPIWFRVP [G16P], the protein stability index turned out to be 5.02.

As to LKGAFPARLKKVIIVGAPIWFRVP [L13I], the protein stability index turned out to be 3.11.

As for LKGAFPARLKKVDIVGAPIWFRVP [L13D], the protein stability index is 1.01.

Take LKGAFPARLKKVFIVGAPIWFRVP [L13F]: the protein stability index was found to be 2.82.

For the variant LKGAFPARLKKVPIVGAPIWFRVP [L13P], the protein stability index worked out at 2.55.

Consider LKGAFPARLKKVLIVGFPIWFRVP [A17F], for which the protein stability index is 2.16.

Regarding LKGAFPARLKKVLIVGTPIWFRVP [A17T], the protein stability index was 4.8.

Take LKGAFPARLKKVLIVGKPIWFRVP [A17K]: the protein stability index amounted to 2.28.

For LKGAFPARLKKVLIVGLPIWFRVP [A17L], the protein stability index worked out at 3.42.

Turning to LKGAFPARLKKVLIVGAPSWFRVP [I19S], the protein stability index was 1.95.

LKGAFPARLKKVLIVGAPTWFRVP [I19T]: the protein stability index is 4.11.

Turning to LKGAFPARLKKVLIVGAPHWFRVP [I19H], the protein stability index is 1.

For LKGAFPARLKKVLIKGAPIWFRVP [V15K], the protein stability index turned out to be 1.37.

On to LKGAFPARLKKVLIFGAPIWFRVP [V15F], for which the protein stability index turned out to be 2.48.

In the case of LKGAFPARLKKVLIWGAPIWFRVP [V15W], the protein stability index was determined as 1.27.

With LKGAFPARLKKVLISGAPIWFRVP [V15S], the protein stability index turned out to be 1.37.

Consider LKGAFPARLKKVLIQGAPIWFRVP [V15Q], for which the protein stability index came out at 1.55.

On to LKGAFPARLKKVLIYGAPIWFRVP [V15Y], for which the protein stability index turned out to be 2.25.

In the case of LKGAFPARLKKVLIDGAPIWFRVP [V15D], the protein stability index came out at 2.44.

Consider LKGAFPARLKKVLITGAPIWFRVP [V15T], for which the protein stability index came to 2.46.

As for LKGAFMARLKKVLIVGAPIWFRVP [P6M], the protein stability index amounted to 1.86.

Take LKGAFHARLKKVLIVGAPIWFRVP [P6H]: the protein stability index was determined as 2.28.

As to WKGAFPARLKKVLIVGAPIWFRVP [L1W], the protein stability index was 2.11.

VKGAFPARLKKVLIVGAPIWFRVP [L1V]: the protein stability index is 3.26.

With CKGAFPARLKKVLIVGAPIWFRVP [L1C], the protein stability index is 3.38.

In the case of KKGAFPARLKKVLIVGAPIWFRVP [L1K], the protein stability index came out at 2.78.

IKGAFPARLKKVLIVGAPIWFRVP [L1I]: the protein stability index amounted to 4.73.

As to SKGAFPARLKKVLIVGAPIWFRVP [L1S], the protein stability index was found to be 4.61.

LKGAFPARLKKVLIVGAPIWFRVL [P24L]: the protein stability index is 3.02.

LKGAFPARLKKVLIVGAPIWFRVD [P24D]: the protein stability index came out at 4.03.

Turning to LKGAFPARLKKVLIVGAPIWFRVK [P24K], the protein stability index stood at 3.06.

Regarding LKGAFPARLKKVLIVGAPIWFRVE [P24E], the protein stability index came to 1.31.

As for LKGAFPARLKKGLIVGAPIWFRVP [V12G], the protein stability index worked out at 1.27.

For LKGAFPARLKKRLIVGAPIWFRVP [V12R], the protein stability index came out at 2.3.

For LKGAFPARLKKNLIVGAPIWFRVP [V12N], the protein stability index came to 3.54.

Take LKGAFPARLKKTLIVGAPIWFRVP [V12T]: the protein stability index stood at 2.61.

With LKGAIPARLKKVLIVGAPIWFRVP [F5I], the protein stability index was 3.12.

Consider LKGALPARLKKVLIVGAPIWFRVP [F5L], for which the protein stability index was determined as 3.82.

As for LKGAPPARLKKVLIVGAPIWFRVP [F5P], the protein stability index was 2.49.

In the case of LKGAFPARLKKVLIVGAPIWRRVP [F21R], the protein stability index amounted to 2.39.

LKGAFPARLKKVLIVGAPIWNRVP [F21N]: the protein stability index is 2.65.

In the case of LKGAFPARLKKVLLVGAPIWFRVP [I14L], the protein stability index was 2.73.

LKGAFPARLKKVLPVGAPIWFRVP [I14P]: the protein stability index is 2.98.

As for LKGAFPARLKKVLEVGAPIWFRVP [I14E], the protein stability index was 1.09.

Regarding LKGAFPARLKKVLDVGAPIWFRVP [I14D], the protein stability index was found to be 1.46.

With LKGAFPARLKKVLNVGAPIWFRVP [I14N], the protein stability index was 1.37.

For the variant LKGAFPARLKKVLRVGAPIWFRVP [I14R], the protein stability index amounted to 2.87.

In the case of LKGAFPFRLKKVLIVGAPIWFRVP [A7F], the protein stability index stood at 3.16.

Consider LKGAFPQRLKKVLIVGAPIWFRVP [A7Q], for which the protein stability index came out at 2.24.

Turning to LKGAFPALLKKVLIVGAPIWFRVP [R8L], the protein stability index is 2.2.

For LKGAFPASLKKVLIVGAPIWFRVP [R8S], the protein stability index was found to be 3.94.

With LKGAFPAWLKKVLIVGAPIWFRVP [R8W], the protein stability index came out at 2.35.

In the case of LKGAFPAFLKKVLIVGAPIWFRVP [R8F], the protein stability index stood at 2.79.

LKGAFPANLKKVLIVGAPIWFRVP [R8N]: the protein stability index was found to be 2.74.

In the case of LKGAFPARFKKVLIVGAPIWFRVP [L9F], the protein stability index was 1.64.

As to LKGAFPARVKKVLIVGAPIWFRVP [L9V], the protein stability index is 4.71.

Take LKGAFPARKKKVLIVGAPIWFRVP [L9K]: the protein stability index stood at 2.57.

Take LKGAFPARLKKVLIVGAPIWFRDP [V23D]: the protein stability index was determined as 2.11.

As to LKGAFPARLKKVLIVGAPIWFRPP [V23P], the protein stability index is 2.07.

Consider LKGAFPARLKKVLIVGAGIWFRVP [P18G], for which the protein stability index was found to be 4.24.

Consider LKGAFPARLKKVLIVGATIWFRVP [P18T], for which the protein stability index was determined as 1.99.

Turning to LKGDFPARLKKVLIVGAPIWFRVP [A4D], the protein stability index was found to be 3.24.

On to LKGQFPARLKKVLIVGAPIWFRVP [A4Q], for which the protein stability index amounted to 2.61.

In the case of LKGFFPARLKKVLIVGAPIWFRVP [A4F], the protein stability index came out at 2.49.

Consider LKGLFPARLKKVLIVGAPIWFRVP [A4L], for which the protein stability index came out at 3.88.

For LKGIFPARLKKVLIVGAPIWFRVP [A4I], the protein stability index was 3.45.

In the case of LKGAFPARLKGVLIVGAPIWFRVP [K11G], the protein stability index came out at 1.84.

For LKGAFPARLKIVLIVGAPIWFRVP [K11I], the protein stability index amounted to 2.21.

Regarding LKGAFPARLKFVLIVGAPIWFRVP [K11F], the protein stability index worked out at 4.03.

In the case of LFGAFPARLKKVLIVGAPIWFRVP [K2F], the protein stability index is 1.26.

Turning to LAGAFPARLKKVLIVGAPIWFRVP [K2A], the protein stability index came out at 2.1.

LLGAFPARLKKVLIVGAPIWFRVP [K2L]: the protein stability index is 3.37.

Take LNGAFPARLKKVLIVGAPIWFRVP [K2N]: the protein stability index was found to be 2.18.

Turning to LRGAFPARLKKVLIVGAPIWFRVP [K2R], the protein stability index was determined as 3.96.

With LKGAFPARLKKVLIVGAPIWFHVP [R22H], the protein stability index turned out to be 2.47.

In the case of LKGAFPARLKKVLIVGAPIWFLVP [R22L], the protein stability index was found to be 4.03.

With LKGAFPARLKKVLIVGAPIWFGVP [R22G], the protein stability index was 2.34.

Take LKGAFPARLKKVLIVGAPIWFPVP [R22P]: the protein stability index is 3.02.

The values above are taken from the supplement of paper PMC10567573.
